Laboratory results published in US20230357447A1 (JANUX THERAPEUTICS, published 2023).

Key:
[1] = molecular target: T1, anti-CD28 scFv (VH-linker 1-VL) (biotinylated (site not stated)); assay: phage ELISA; biotinylated scFv on neutravidin plate; anti-M13-HRP;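 further: crude clonal phage supernatant added to wells pre-incubated with soluble CD28 protein or only blocking buffer, then washed, bound phage read out with an HRP-linked anti-M13 antibody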
T1 construct: Captured as biotinylated scFv on neutravidin coated plates in the phage ELISA

[2] = molecular target: T1, anti-CD28 scFv (VH-linker 1-VL); assay: phage ELISA; scFv wells pre-incubated with soluble CD28 (competitor);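 further: crude clonal phage supernatants added to wells pretreated with soluble CD28 in blocking buffer, bound phage read via HRP-linked anti-M13 antibody, reference wells got blocking buffer only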
Description: Clonal phage were harvested as crude supernatants and screened via standard enzyme linked immunosorbent assays (ELISAs). […] Prior to the addition of clonal phage, wells were incubated with blocking buffer and CD28 soluble protein or blocking buffer alone. Without washing or aspirating, clonal phage supernatants were then added to the wells and incubated for a short time. Wells were then washed followed by detection of bound phage using a horse radish peroxidase conjugated anti-M13 antibody.

T1 sequence (scFv, as listed by the source): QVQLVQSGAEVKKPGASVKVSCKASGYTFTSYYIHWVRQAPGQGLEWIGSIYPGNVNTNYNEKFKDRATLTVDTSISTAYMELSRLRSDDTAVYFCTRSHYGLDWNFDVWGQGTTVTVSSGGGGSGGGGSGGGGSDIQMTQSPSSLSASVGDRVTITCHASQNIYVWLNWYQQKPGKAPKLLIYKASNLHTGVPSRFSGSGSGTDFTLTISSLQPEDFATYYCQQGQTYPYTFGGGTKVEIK

Binder	CD28 scFv signal [1]	CD28 scFv signal in presence of CD28 [2]
VPWCQIISGLECLT (on phage (pIII fusion)) [Phage-229 clonal phage peptide]	0.174	0.077
APWCQIISGLECLT (on phage (pIII fusion)) [Phage-230 clonal phage peptide]	0.169	0.078
VPWCLIISGLDCLN (on phage (pIII fusion)) [Phage-231 clonal phage peptide]	0.107	0.09
MDWCARFVGYGCLD (on phage (pIII fusion)) [Phage-232 clonal phage peptide]	0.065	0.074
MTWCPTSFWNRCLD (on phage (pIII fusion)) [Phage-233 clonal phage peptide]	0.392	0.405
MDWCPRHLWFECFN (on phage (pIII fusion)) [Phage-293 clonal phage peptide]	2.49	0.171
MDWCPRALWFECFF (on phage (pIII fusion)) [Phage-234 clonal phage peptide]	2.67	0.331
MDWCPRHLWYECFN (on phage (pIII fusion)) [Phage-243 clonal phage peptide]	2.41	0.167
MDWCPRHLWNECFN (on phage (pIII fusion)) [Phage-283 clonal phage peptide]	2.65	0.393
MDWCPRHLWFECFF (on phage (pIII fusion)) [Phage-300 clonal phage peptide]	2.45	0.479
MDWCPRHLWNECFA (on phage (pIII fusion)) [Phage-306 clonal phage peptide]	2.39	0.17
MDWCPIHLWNECFN (on phage (pIII fusion)) [Phage-314 clonal phage peptide]	2.35	0.157
MDWCPRYLWHVCFN (on phage (pIII fusion)) [Phage-239 clonal phage peptide]	2.6	0.409
MDWCPRYLWHECFS (on phage (pIII fusion)) [Phage-235 clonal phage peptide]	2.65	0.303
MDWCPSYLWHECFF (on phage (pIII fusion)) [Phage-237 clonal phage peptide]	2.61	0.447
MDWCPRTLWHVCFN (on phage (pIII fusion)) [Phage-240 clonal phage peptide]	2.6	0.551
MDWCPRYLWHECFD (on phage (pIII fusion)) [Phage-244 clonal phage peptide]	2.07	0.177
MDWCPRHLWSVCFN (on phage (pIII fusion)) [Phage-255 clonal phage peptide]	2.65	0.825
MDWCPRSLWHVCFN (on phage (pIII fusion)) [Phage-258 clonal phage peptide]	2.41	0.238

Binder	CD28 scFv signal [1]	CD28 scFv signal in presence of CD28 [2]
MDWCPRHLWHVCFN (on phage (pIII fusion)) [Phage-264 clonal phage peptide]	2.67	0.636
MDWCPRYLWHVCFY (on phage (pIII fusion)) [Phage-291 clonal phage peptide]	2.5	1.14
MDWCPRYLWHECFF (on phage (pIII fusion)) [Phage-301 clonal phage peptide]	2.45	0.682
MDWCPRYLWHVCFD (on phage (pIII fusion)) [Phage-302 clonal phage peptide]	2.44	0.31
MDWCPRYLWTECFS (on phage (pIII fusion)) [Phage-303 clonal phage peptide]	2.42	0.329
MDWCPRDLWTECFS (on phage (pIII fusion)) [Phage-305 clonal phage peptide]	2.4	0.174
MDWCPPYLWSECFA (on phage (pIII fusion)) [Phage-238 clonal phage peptide]	2.6	0.234
MDWCPRYLWSECFA (on phage (pIII fusion)) [Phage-254 clonal phage peptide]	2.71	0.513
MDWCPRHLWHECYS (on phage (pIII fusion)) [Phage-241 clonal phage peptide]	2.58	0.374
MDWCPKHLWTECFA (on phage (pIII fusion)) [Phage-242 clonal phage peptide]	2.49	0.145
MDWCPRNLWHLCFA (on phage (pIII fusion)) [Phage-245 clonal phage peptide]	1.4	0.164
MDWCPKHLWNKCFN (on phage (pIII fusion)) [Phage-246 clonal phage peptide]	1.16	0.092
MDWCPRFMWAECFN (on phage (pIII fusion)) [Phage-247 clonal phage peptide]	2.6	0.341
MDWCPRNMWHHCFD (on phage (pIII fusion)) [Phage-248 clonal phage peptide]	1.6	0.524
MDWCPSDMWAHCYN (on phage (pIII fusion)) [Phage-249 clonal phage peptide]	1.21	0.109
MDWCPKVMWHYCFA (on phage (pIII fusion)) [Phage-250 clonal phage peptide]	1.14	0.252
MDWCPRFMWSECFS (on phage (pIII fusion)) [Phage-251 clonal phage peptide]	1.01	0.137
MDWCPRHMWINCFA (on phage (pIII fusion)) [Phage-252 clonal phage peptide]	0.92	0.165
MVGCATSMWNRCLT (on phage (pIII fusion)) [Phage-253 clonal phage peptide]	0.77	0.746

Binder	CD28 scFv signal [1]	CD28 scFv signal in presence of CD28 [2]
MDWCPFDLWHVCYN (on phage (pIII fusion)) [Phage-256 clonal phage peptide]	2.6	0.651
MDWCPMFLWHECFN (on phage (pIII fusion)) [Phage-309 clonal phage peptide]	2.38	0.591
MDWCPRFLWHECFN (on phage (pIII fusion)) [Phage-257 clonal phage peptide]	2.59	0.351
MDWCPMFMWHECFN (on phage (pIII fusion)) [Phage-261 clonal phage peptide]	2.23	1.04
MDWCPMFLWDECFN (on phage (pIII fusion)) [Phage-318 clonal phage peptide]	2.29	0.203
MDWCPRNLWHACFN (on phage (pIII fusion)) [Phage-259 clonal phage peptide]	1.57	0.112
MDWCPVFMWNECFN (on phage (pIII fusion)) [Phage-260 clonal phage peptide]	2.66	0.356
MYWCATSMWNRCFV (on phage (pIII fusion)) [Phage-262 clonal phage peptide]	0.398	0.415
MDWCPRHMWHECFA (on phage (pIII fusion)) [Phage-263 clonal phage peptide]	2.52	0.298
VTSCPTTMWNRCFS (on phage (pIII fusion)) [Phage-266 clonal phage peptide]	1.22	0.546
MTLCLSVDLVHCWY (on phage (pIII fusion)) [Phage-267 clonal phage peptide]	0.632	0.093
DSFCTWSAWQECGR (on phage (pIII fusion)) [Phage-269 clonal phage peptide]	0.13	0.101
MDWCPRDFWAFCFF (on phage (pIII fusion)) [Phage-270 clonal phage peptide]	2.37	0.655
MDWCPTSFWNRCFH (on phage (pIII fusion)) [Phage-271 clonal phage peptide]	0.087	0.092
MVWCMSVGWAVCLN (on phage (pIII fusion)) [Phage-272 clonal phage peptide]	0.271	0.284
WVSCLRHHWLECFH (on phage (pIII fusion)) [Phage-274 clonal phage peptide]	0.723	0.858
MDWCPRDHWVDCYS (on phage (pIII fusion)) [Phage-275 clonal phage peptide]	0.671	0.092
IDWCPKIHWDLCYF (on phage (pIII fusion)) [Phage-276 clonal phage peptide]	0.295	0.082
